According to patent US7514207B2, “Methods of screening for compounds that decrease phosphorylation of merlin and may be useful in cancer treatment” (Massachusetts Institute of Technology, priority 2001, dated 2009):
Values belong to the molecule of their own block, whether it stands above or below them.

Legend:
[1] = test system: merlin kinase; test: In-vitro merlin kinase assay with kinase inhibitors; assay type: biochemical; conditions: for concentration range inhibiting the merlin kinase: inhibition of the activity of the merlin kinase
[2] = target: T1, GST-merlin pseudo-substrate (residues 478-535 of merlin fused to glutathione-S-transferase), P35240
T1 chain: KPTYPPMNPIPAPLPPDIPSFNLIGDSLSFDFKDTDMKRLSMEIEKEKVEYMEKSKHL

[3] = target: merlin expressed from an inducible allele in the RT4-D6P2T cell line
[4] = test system: phosphorylation of merlin induced by activated Rac or cdc42; test: In-vivo merlin phosphorylation in co-transfected NIH3T3 cells (western blot); assay type: cell-based; conditions: NIH3T3 cells co-transfected with merlin, activated Rac or cdc42 and the PAK2 AID
Procedure: In the in-vitro kinase assays where full-length merlin was used, cells transfected with merlin expression vectors were extracted, and merlin was immunoprecipitated using a commercially available antibody SC-331 (Santa Cruz) and Protein A-agarose beads. In the in-vivo studies, cells were transfected with various expression vectors and harvested after 48 hours into SDS-boiling buffer (10 mM Tris pH 7.5, 50 mM NaF, and 1% SDS). Cells were scraped off the plates and boiled for 5′. Protein concentration was determined by the BCA method (Pierce) and resolved by 9% SDS-PAGE and western blot analysis.
The inhibitory fragment in PAK2 resides between residues 82-146 (equivalent to the 83-149 AID of PAK1). […] To further investigate the role of PAK2 in induction of merlin phosphorylation, the ability of the AID to inhibit this activity was assessed. NIH3T3 cells were co-transfected with expression vectors for merlin, activated Rac, or cdc42 and the PAK2 AID.

Molecule: COC(=O)[C@@]1(O)C[C@H]2O[C@]1(C)n1c3ccccc3c3c4c(c5c6ccccc6n2c5c31)C(=O)NC4 [K252a]
concentration range inhibiting the merlin kinase [1]: mM range

concentration up to which no effect on the merlin kinase was seen ([1]; no effect up to this concentration): > 1 mM
Molecule: NCCNS(=O)(=O)c1cccc2cnccc12 [H9]

concentration range inhibiting the merlin kinase [1]: mM range
Molecule: CCCCCCOC(=O)[C@]1(O)C[C@@H]2O[C@@]1(C)n1c3ccccc3c3c4c(c5c6ccccc6n2c5c31)C(=O)NC4 [K-5720]

B1: PAK3 (transfected) (protein)
chain: MSDGLDNEEKPPAPPLRMNSNNRDSSALNHSSKPLPMAPEEKNKKARLRSIFPGGGDKTNKKKEKERPEISLPSDFEHTIHVGFDAVTGEFTGIPEQWARLLQTSNITKLEQKKNPQAVLDVLKFYDSKETVNNQKYMSFTSGDKSAHGYIAAHPSSTKTASEPPLAPPVSEEEDEEEEEEEDENEPPPVIAPRPEHTKSIYTRSVVESIASPAVPNKEVTPPSAENANSSTLYRNTDRQRKKSKMTDEEILEKLRSIVSVGDPKKKYTRFEKIGQGASGTVYTALDIATGQEVAIKQMNLQQQPKKELIINEILVMRENKNPNIVNYLDSYLVGDELWVVMEYLAGGSLTDVVTETCMDEGQIAAVCRECLQALDFLHSNQVIHRDIKSDNILLGMDGSVKLTDFGFCAQITPEQSKRSTMVGTPYWMAPEVVTRKAYGPKVDIWSLGIMAIEMVEGEPPYLNENPLRALYLIATNGTPELQNPERLSAVFRDFLNRCLEMDVDRRGSAKELLQHPFLKLAKPLSSLTPLIIAAKEAIKNSSR
phosphorylation of the pseudo-substrate in an in-vitro kinase assay [2]: Only extracts from cells transfected with PAK2 and PAK3 were able to effectively phosphorylate the pseudo-substrate

B2: PAK2 of NIH3T3 cell extracts (endogenous) (protein)
chain: SDNGELEDKPPAPPVRMSSTIFSTGGKDPLSANHSLKPLPSVPEEKKPRNKIISIFSGTEKGSKKKEKERPEISPPSDFEHTIHVGFDAVTGEFTGMPEQWARLLQTSNITKLEQKKNPQAVLDVLKFYDSNTVKQKYLSFTPPEKDGFPSGTPALNTKGSETSAVVTEEDDDDEDAAPPVIAPRPDHTKSIYTRSVIDPIPAPVGDSNVDSGAKSSDKQKKKAKMTDEEIMEKLRTIVSIGDPKKKYTRYEKIGQGASGTVFTATDVALGQEVAIKQINLQKQPKKELIINEILVMKELKNPNIVNFLDSYLVGDELFVVMEYLAGGSLTDVVTETCMDEAQIAAVCRECLQALEFLHANQVIHRDIKSDNVLLGMEGSVKLTDFGFCAQITPEQSKRSTMVGTPYWMAPEVVTRKAYGPKVDIWSLGIMAIEMVEGEPPYLNENPLRALYLIATNGTPELQNPEKLSPIFRDFLNRCLEMDVEKRGSAKELLQHPFLKLAKPLSSLTPLILAAKEAMKSNR
kinase activity on the GST-merlin substrate after immunodepletion of PAK2 [2]: extracts immunodepleted for PAK2 (+PAK2 Ab) had a 2-3 fold reduction in kinase activity

B3: PAK1 (transfected) (protein)
chain: MSNNGLDIQDKPPAPPMRNTSTMIGAGSKDAGTLNHGSKPLPPNPEEKKKKDRFYRSILPGDKTNKKKEKERPEISLPSDFEHTIHVGFDAVTGEFTGMPEQWARLLQTSNITKSEQKKNPQAVLDVLEFYNSKKTSNSQKYMSFTDKSAEDYNSSNALNVKAVSETPAVPPVSEDEDDDDDDATPPPVIAPRPEHTKSVYTRSVIEPLPVTPTRDVATSPISPTENNTTPPDALTRNTEKQKKKPKMSDEEILEKLRSIVSVGDPKKKYTRFEKIGQGASGTVYTAMDVATGQEVAIKQMNLQQQPKKELIINEILVMRENKNPNIVNYLDSYLVGDELWVVMEYLAGGSLTDVVTETCMDEGQIAAVCRECLQALEFLHSNQVIHRDIKSDNILLGMDGSVKLTDFGFCAQITPEQSKRSTMVGTPYWMAPEVVTRKAYGPKVDIWSLGIMAIEMIEGEPPYLNENPLRALYLIATNGTPELQNPEKLSAIFRDFLNRCLEMDVEKRGSAKELLQHQFLKIAKPLSSLTPLIAAAKEATKNNH
phosphorylation of the pseudo-substrate in an in-vitro kinase assay [2]: Other kinases, which are known effectors of cdc42/Rac, including PAK1, LIM-kinase and JNK, did not induce phosphorylation of merlin in these assays

B4: endogenous PAK1 of RT4 cells (protein)
chain: SNNGLDVQDKPPAPPMRNTSTMIGAGSKDPGTLNHGSKPLPPNPEEKKKKDRFYRSILAGDKTNKKKEKERPEISLPSDFEHTIHVGFDAVTGEFTGMPEQWARLLQTSNITKSEQKKNPQAVLDVLEFYNSKKTSNSQKYMSFTDKSAEDYNSSNTLNVKTVSETPAVPPVSEDEDDDDDATPPPVIAPRPEHTKSVYTRSVIEPLPVTPTRDVATSPISPTENNTTPPDALTRNTEKQKKKPKMSDEEILEKLRSIVSVGDPKKKYTRFEKIGQGASGTVYTAMDVATGQEVAIKQMNLQQQPKKELIINEILVMRENKNPNIVNYLDSYLVGDELWVVMEYLAGGSLTDVVTETCMDEGQIAAVCRECLQALEFLHSNQVIHRDIKSDNILLGMDGSVKLTDFGFCAQITPEQSKRSTMVGTPYWMAPEVVTRKAYGPKVDIWSLGIMAIEMIEGEPPYLNENPLRALYLIATNGTPELQNPEKLSAIFRDFLNRCLEMDVEKRGSAKELLQHQFLKIAKPLSSLTPLIAAAKEATKNNH
phosphorylation status (activation) of PAK1 by 2-dimensional protein analysis [3]: The basal levels of activated PAK1 were reduced under conditions of high merlin expression compared to conditions of low merlin expression

B5: PAK2 AID: auto-inhibitory domain of PAK2, residues 82-146, expressed from pcDNA3; dominant negative fragment (protein)
chain: HTIHVGFDAVTGEFTGMPEQWARLLQTSNITKLEQKKNPQAVLDVLKFYDSNTVKQKYLSFTPPE
decrease in the ratio of hyper-phosphorylated to hypo-phosphorylated merlin [4]: 3-4 fold

B6: PAK2 wild-type (transfected) (protein)
chain: MSDNGELEDKPPAPPVRMSSTIFSTGGKDPLSANHSLKPLPSVPEEKKPRHKIISIFSGTEKGSKKKEKERPEISPPSDFEHTIHVGFDAVTGEFTGMPEQWARLLQTSNITKLEQKKNPQAVLDVLKFYDSNTVKQKYLSFTPPEKDGFPSGTPALNAKGTEAPAVVTEEEDDDEETAPPVIAPRPDHTKSIYTRSVIDPVPAPVGDSHVDGAAKSLDKQKKKTKMTDEEIMEKLRTIVSIGDPKKKYTRYEKIGQGASGTVFTATDVALGQEVAIKQINLQKQPKKELIINEILVMKELKNPNIVNFLDSYLVGDELFVVMEYLAGGSLTDVVTETCMDEAQIAAVCRECLQALEFLHANQVIHRDIKSDNVLLGMEGSVKLTDFGFCAQITPEQSKRSTMVGTPYWMAPEVVTRKAYGPKVDIWSLGIMAIEMVEGEPPYLNENPLRALYLIATNGTPELQNPEKLSPIFRDFLNRCLEMDVEKRGSAKELLQHPFLKLAKPLSSLTPLIMAAKEAMKSNR
phosphorylation of the pseudo-substrate in an in-vitro kinase assay [2]: Only extracts from cells transfected with PAK2 and PAK3 were able to effectively phosphorylate the pseudo-substrate
